A word on the Kd: it is the concentration at which binding is half-saturated.

We go through 1 molecule from publication PMC3058826 (Nature, 2010).

A value given as a limit tells only on which side of the number the result lay.

This test deals with T1, TRIM24 PHD-Bromo C840W (human, UniProt O15164 824-1006, C840W).
T1 sequence: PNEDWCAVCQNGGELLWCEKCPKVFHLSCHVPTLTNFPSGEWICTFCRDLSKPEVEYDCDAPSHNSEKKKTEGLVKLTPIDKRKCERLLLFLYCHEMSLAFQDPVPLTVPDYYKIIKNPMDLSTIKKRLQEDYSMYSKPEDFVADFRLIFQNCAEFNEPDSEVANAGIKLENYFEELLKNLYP
Nature of the test: ITC. On the technique in general: In ITC the heat of successive injections is recorded.

In the case of ARTKQTARKSTGGKA [H3(1–15)K4 peptide], the Kd is over 400 µM.
